Measurements published in paper PMC10539301, “Structure of the human ATAD2 AAA+ histone chaperone reveals mechanism of regulation and inter-subunit communication” (Communications Biology, 2023).
Changes are numbered by the printed parent chain. Names and notes keep the numbering of the source.

B1: N-terminally truncated ATAD2 (aa 403-1390), wild type (domain or fragment, human, UniProt Q6PL18 403-1390, looked up)
chain: DRMKIGASLADVDPMQLDSSVRFDSVGGLSNHIAALKEMVVFPLLYPEVFEKFKIQPPRGCLFYGPPGTGKTLVARALANECSQGDKRVAFFMRKGADCLSKWVGESERQLRLLFDQAYQMRPSIIFFDEIDGLAPVRSSRQDQIHSSIVSTLLALMDGLDSRGEIVVIGATNRLDSIDPALRRPGRFDREFLFSLPDKEARKEILKIHTRDWNPKPLDTFLEELAENCVGYCGADIKSICAEAALCALRRRYPQIYTTSEKLQLDLSSINISAKDFEVAMQKMIPASQRAVTSPGQALSTVVKPLLQNTVDKILEALQRVFPHAEFRTNKTLDSDISCPLLESDLAYSDDDVPSVYENGLSQKSSHKAKDNFNFLHLNRNACYQPMSFRPRILIVGEPGFGQGSHLAPAVIHALEKFTVYTLDIPVLFGVSTTSPEETCAQVIREAKRTAPSIVYVPHIHVWWEIVGPTLKATFTTLLQNIPSFAPVLLLATSDKPHSALPEEVQELFIRDYGEIFNVQLPDKEERTKFFEDLILKQAAKPPISKKKAVLQALEVLPVAPPPEPRSLTAEEVKRLEEQEEDTFRELRIFLRNVTHRLAIDKRFRVFTKPVDPDEVPDYVTVIKQPMDLSSVISKIDLHKYLTVKDYLRDIDLICSNALEYNPDRDPGDRLIRHRACALRDTAYAIIKEELDEDFEQLCEEIQESRKKRGCSSSKYAPSYYHVMPKQNSTLVGDKRSDPEQNEKLKTPSTPVACSTPAQLKRKIRKKSNWYLGTIKKRRKISQAKDDSQNAIDHKIESDTEETQDTSVDHNETGNTGESSVEENEKQQNASESKLELRNNSNTCNIENELEDSRKTTACTELRDKIACNGDASSSQIIHISDENEGKEMCVLRMTRARRSQVEQQQLITVEKALAILSQPTPSLVVDHERLKNLLKTVVKKSQNYNIFQLENLYAVISQCIYRHRKDHDKTSLIQKMEQEVENFSCSR
notes: ATAD2 (ATPase family AAA domain-containing 2), human, aa 403-1390, from a codon-optimized synthetic full-length gene (Genscript); The vector has a Tev protease site after the 3xFlag tag; No cleavage step is described in the purification; also called wild type ATAD2
B2: ATAD2 Walker B mutant (E532Q), aa 403-1390 (domain or fragment, human, UniProt Q6PL18 403-1390, looked up)
chain: B1 chain with E130Q
notes: ATAD2 (ATPase family AAA domain-containing 2), human, aa 403-1390, Walker B mutation E532Q; A Tev site follows the tag, and no cleavage step is described; also called ATAD2 (in the structure sections); not shown: 3xFlag, N-terminal, kept
B3: ATAD2 LD/Walker B triple mutant (D415A/E532Q/R540A), aa 403-1390 (domain or fragment, human, UniProt Q6PL18 403-1390, looked up)
chain: B1 chain with D13A, E130Q, R138A
notes: ATAD2, human, aa 403-1390, with D415A, E532Q and R540A; source: SF9 cells (baculovirus), purified

Tests used:
[1] = molecular target: the molecule itself; assay: SEC + native gel or EMSA + other: negative stain electron microscopy; purified ATAD2 (aa 403-1390) variants; wild type in the absence and presence of ATP; Supplementary Fig. 1
[2] = molecular target: T1, Histone H3/H4 complex (X. laevis, wild type, refolded) (X. laevis, UniProt P84233 1-136; P62799 1-103); assay: cross-linking; DSS 1 mM, 30 min, 37 °C, in 25 mM HEPES pH 7.5, 150 mM NaCl, 5% glycerol, 1 mM DTT; sucrose gradient fraction of hexameric ATAD2; cross-links found by mass spectrometry (XL-MS); conditions: both partners purified
T1 construct: It was pooled as the H3/H4 tetramer in 2 M NaCl and diluted to 150 mM NaCl before mixing; also called wild type H3/H4

[3] = molecular target: Histone H4 (X. laevis, recombinant) (X. laevis, UniProt P62799 1-103); assay: as above; conditions: both partners purified
[4] = molecular target: Histone H3 (X. laevis, recombinant) (X. laevis, UniProt P84233 1-136); assay: as above; conditions: both partners purified
[5] = molecular target: the molecule itself; assay: cryo-EM structure; ATAD2 Walker B mutant and refolded H3/H4 or H3/H4K5Q mixed 1:1.5 in 150 mM NaCl, cross-linked with 1 mM DSS, purified on a 10-30% sucrose gradient; vitrified at 1.2 mg/mL with 1 mM Mg-ATP; classes I-III at 3.8, 4.3, 4.3 Å

Binder	binding result [1]	binding result [2]	binding result [3]	binding result [4]	stoichiometry N [5]
B1	binds	–	–	–	–
B2	–	binds	binds	binds	6
B3	binds	–	–	–	–
